Columns and labels:
[1] = target: cell surface receptors on glycanase treated PBMC; assay: saturation binding of 125I-RANTES-heparin complexes to glycanase treated activated human PBMC
[2] = target: cell surface receptors on glycanase treated PBMC; assay: saturation binding of 125I-RANTES-heparin complexes to glycanase treated activated human PBMC, nonlinear curve fitting
[3] = target: cell surface receptors on glycanase treated PBMC; assay: saturation binding of 125I-RANTES-heparin complexes to glycanase treated activated human PBMC, gamma counting, nonlinear curve fitting after subtracting non-specific binding
CCR5 (human) [4] = target: CCR5 (human) (UniProt P51681); assay: flow cytometry of the activated human PBMC with mAb 2D7
Sequence of UniProt P51681 (P51681 whole entry): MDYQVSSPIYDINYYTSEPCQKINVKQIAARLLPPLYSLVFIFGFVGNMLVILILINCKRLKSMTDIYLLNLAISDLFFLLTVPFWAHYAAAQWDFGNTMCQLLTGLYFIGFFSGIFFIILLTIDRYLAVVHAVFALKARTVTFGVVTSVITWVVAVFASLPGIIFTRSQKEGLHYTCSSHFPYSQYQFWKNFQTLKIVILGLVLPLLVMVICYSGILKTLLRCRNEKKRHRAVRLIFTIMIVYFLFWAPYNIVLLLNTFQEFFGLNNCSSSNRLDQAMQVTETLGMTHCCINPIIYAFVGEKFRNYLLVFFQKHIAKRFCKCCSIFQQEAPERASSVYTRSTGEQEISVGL

CCR5 (human) [5] = target: CCR5 (human) (UniProt P51681); assay: glycanase treated PBMC preincubated with mAb 2D7, then 125I-RANTES-heparin complexes as labelled ligand, gamma counting; reference normal mouse IgG

For “125I-labeled RANTES-heparin complexes (from UniProt P13501 24-91) (ligand)”, the saturating concentration [1] was > 1 nM, the Bmax (binding sites per cell) [2] was 900 and the Kd [3] was 1.5 nM.
anti-CCR5 monoclonal antibody 2D7 was tested, and the percent of cells expressing CCR5 (stained by 2D7) (CCR5 (human) [4]) was 100% and the percent reduction of 125I-RANTES binding (CCR5 (human) [5]) was 40 percent.

Reference: US6399078
